Measurements taken from patent US20260193348A1 (ANTENGENE BIOLOGICS, published 2026).

What was measured:
GPRC5D on MM.1S cells [1] = biological target: T1, GPRC5D on MM.1S cells (human, UniProt Q9NZD1 1-345); experiment: FACS on MM.1S cells
T1 construct: whole, on cells; MM.1S is called a GPRC5D positive expressed cell line and human multiple myeloma cells; also called G-protein coupled receptor family C group 5 member D
Procedure: The binding affinities of the generated humanized Fab-scFv-Fab bispecific antibodies were determined by FACS analysis. […] (a) Jurkat cells were washed by Staining Buffer (PBS+1% BSA) in round bottom 96-well plate. [0833] (b) Antibody dilutions and cells were added to each well, incubated at 4 degrees for 1 hour. [0834] (c) Cells were spined down at 300 g for 3 minutes, and the supernatants were discarded. [0835] (d) Cells were washed with Staining Buffer. […] (e) Step (d) was repeated and the cells were incubated for 0.5 hours at 4 degrees with secondary antibody in Staining Buffer. [0837] (f) After incubation, step (d)-(e) were repeated. […] (g) Staining Buffer was added and fluorescence signals were recorded by flow cytometry.
The binding affinities of the generated humanized Fab-scFv-Fab bispecific antibodies were determined by FACS analysis. The ATG-Bis-40E9 was used as positive control and hIgG1 isotype was used as negative control. The protocol for FACS analysis is identical to that described in Example 3.2, except that MM.1S cells were used in this example.

GPRC5D on MM.1S cells [2] = biological target: T1, GPRC5D on MM.1S cells; experiment: cell-based or functional assay
GPRC5D on MM.1S cells [3] = biological target: T1, GPRC5D on MM.1S cells; experiment: cell-based or functional assay; remark: listed apart in the source

T1 sequence (Q9NZD1 whole entry): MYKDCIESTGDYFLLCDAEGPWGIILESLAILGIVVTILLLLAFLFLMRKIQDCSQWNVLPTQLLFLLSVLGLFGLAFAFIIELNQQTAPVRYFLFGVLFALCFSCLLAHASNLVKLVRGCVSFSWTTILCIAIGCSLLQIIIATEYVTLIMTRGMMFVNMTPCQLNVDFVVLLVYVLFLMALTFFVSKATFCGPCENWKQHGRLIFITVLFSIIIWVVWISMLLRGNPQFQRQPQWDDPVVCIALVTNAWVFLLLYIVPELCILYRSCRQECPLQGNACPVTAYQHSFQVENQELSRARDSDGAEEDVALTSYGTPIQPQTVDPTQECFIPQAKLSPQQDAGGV

Row | Binder | EC50 (GPRC5D on MM.1S cells [1]) | Top signal (GPRC5D on MM.1S cells [1]) | IC50 of T-cell dependent cytotoxicity on MM.1S cells (GPRC5D on MM.1S cells [2]) | EC50, Jurkat-NFAT-Luciferase assay in the presence of MM.1S cells (GPRC5D on MM.1S cells [3]) | Top RLU, Jurkat-NFAT-Luciferase assay in the presence of MM.1S cells (GPRC5D on MM.1S cells [3]) | Top (%) target cell killing, MM.1S cells (GPRC5D on MM.1S cells [2])
1 | Bis-108+147-K36R.L (bispecific antibody, Fab-scFv-Fab format) heavy 1: not shown heavy 2: EVQLVQSGAEVKKPGASVKVSCKASGYTFTSYVIHWVRQAPGQGLEWMGYFNPYNDGTKYNEEFKGRVTLTSDKSTSTAYMELRSLRSDDTAVYYCARGGVRRYFDVWGQGTTVTVSSASTKGPSVFPLAPSSKSTSGGTAALGCLVKDYFPEPVTVSWNSGALTSGVHTFPAVLQSSGLYSLSSVVTVPSSSLGTQTYICNVNHKPSNTKVDKKVEPKSCGGGGSGGGGSEVQLVQSGAEVKKPGSSVKVSCKASGYTFTSYWMHWVRQAPGQCLEWMGNINPSSGATNYNEKFKSRVTLTVDKSTSTAYMELSSLRSEDTAVYYCARDRSSQYYFDYWGQGTTVTVSSGGGGSGGGGSGGGGSGGGGSDIVMTQSPDSLAVSLGERATINCKSSQSLLNSRSRRNYLAWYQQKPGQPPKLLIYWASTRESGVPDRFSGSGSGTDFTLTISSLQAEDVAVYYCTQSYTLRTFGCGTKVEIKGGGGSGGGGSDKTHTCPPCPAPEAAGGPSVFLFPPKPKDTLMISRTPEVTCVVVDVSHEDPEVKFNWYVDGVEVHNAKTKPREEQYNSTYRVVSVLTVLHQDWLNGKEYKCKVSNKALPAPIEKTISKAKGQPREPQVCTLPPSREEMTKNQVSLSCAVKGFYPSDIAVEWESNGQPENNYKTTPPVLDSDGSFFLVSKLTVDKSRWQQGNVFSCSVMHEALHNHYTQKSLSLSPGK light: DIQMTQSPSSLSASVGDRVTITCRASQDIGSNLNWLQQKPGKAIKRLIYATFGLDSGVPSRFSGSRSGTDFTLTISSLQPEDFATYYCQQYASFPYTFGGGTKVEIKRTVAAPSVFIFPPSDEQLKSGTASVVCLLNNFYPREAKVQWKVDNALQSGNSQESVTEQDSKDSTYSLSSTLTLSKADYEKHKVYACEVTHQGLSSPVTKSFNRGEC | 1.56 nM | 1840 MFI | 1940 nM | 0.76 nM | 326 RLU | 
2 | Bis-108+147-N31Y.L (bispecific antibody, Fab-scFv-Fab format) heavy 1: not shown heavy 2: EVQLVQSGAEVKKPGASVKVSCKASGYTFTSYVIHWVRQAPGQGLEWMGYFNPYNDGTKYNEEFKGRVTLTSDKSTSTAYMELRSLRSDDTAVYYCARGGVRRYFDVWGQGTTVTVSSASTKGPSVFPLAPSSKSTSGGTAALGCLVKDYFPEPVTVSWNSGALTSGVHTFPAVLQSSGLYSLSSVVTVPSSSLGTQTYICNVNHKPSNTKVDKKVEPKSCGGGGSGGGGSEVQLVQSGAEVKKPGSSVKVSCKASGYTFTSYWMHWVRQAPGQCLEWMGNINPSSGATNYNEKFKSRVTLTVDKSTSTAYMELSSLRSEDTAVYYCARDRSSQYYFDYWGQGTTVTVSSGGGGSGGGGSGGGGSGGGGSDIVMTQSPDSLAVSLGERATINCKSSQSLLYSRSRKNYLAWYQQKPGQPPKLLIYWASTRESGVPDRFSGSGSGTDFTLTISSLQAEDVAVYYCTQSYTLRTFGCGTKVEIKGGGGSGGGGSDKTHTCPPCPAPEAAGGPSVFLFPPKPKDTLMISRTPEVTCVVVDVSHEDPEVKFNWYVDGVEVHNAKTKPREEQYNSTYRVVSVLTVLHQDWLNGKEYKCKVSNKALPAPIEKTISKAKGQPREPQVCTLPPSREEMTKNQVSLSCAVKGFYPSDIAVEWESNGQPENNYKTTPPVLDSDGSFFLVSKLTVDKSRWQQGNVFSCSVMHEALHNHYTQKSLSLSPGK light: DIQMTQSPSSLSASVGDRVTITCRASQDIGSNLNWLQQKPGKAIKRLIYATFGLDSGVPSRFSGSRSGTDFTLTISSLQPEDFATYYCQQYASFPYTFGGGTKVEIKRTVAAPSVFIFPPSDEQLKSGTASVVCLLNNFYPREAKVQWKVDNALQSGNSQESVTEQDSKDSTYSLSSTLTLSKADYEKHKVYACEVTHQGLSSPVTKSFNRGEC | 1.93 nM | 1930 MFI |  | 0.27 nM | 11.8 RLU | 122%
3 | Bis-108+147-N37K.L (bispecific antibody, Fab-scFv-Fab format) heavy 1: not shown heavy 2: EVQLVQSGAEVKKPGASVKVSCKASGYTFTSYVIHWVRQAPGQGLEWMGYFNPYNDGTKYNEEFKGRVTLTSDKSTSTAYMELRSLRSDDTAVYYCARGGVRRYFDVWGQGTTVTVSSASTKGPSVFPLAPSSKSTSGGTAALGCLVKDYFPEPVTVSWNSGALTSGVHTFPAVLQSSGLYSLSSVVTVPSSSLGTQTYICNVNHKPSNTKVDKKVEPKSCGGGGSGGGGSEVQLVQSGAEVKKPGSSVKVSCKASGYTFTSYWMHWVRQAPGQCLEWMGNINPSSGATNYNEKFKSRVTLTVDKSTSTAYMELSSLRSEDTAVYYCARDRSSQYYFDYWGQGTTVTVSSGGGGSGGGGSGGGGSGGGGSDIVMTQSPDSLAVSLGERATINCKSSQSLLNSRSRKKYLAWYQQKPGQPPKLLIYWASTRESGVPDRFSGSGSGTDFTLTISSLQAEDVAVYYCTQSYTLRTFGCGTKVEIKGGGGSGGGGSDKTHTCPPCPAPEAAGGPSVFLFPPKPKDTLMISRTPEVTCVVVDVSHEDPEVKFNWYVDGVEVHNAKTKPREEQYNSTYRVVSVLTVLHQDWLNGKEYKCKVSNKALPAPIEKTISKAKGQPREPQVCTLPPSREEMTKNQVSLSCAVKGFYPSDIAVEWESNGQPENNYKTTPPVLDSDGSFFLVSKLTVDKSRWQQGNVFSCSVMHEALHNHYTQKSLSLSPGK light: DIQMTQSPSSLSASVGDRVTITCRASQDIGSNLNWLQQKPGKAIKRLIYATFGLDSGVPSRFSGSRSGTDFTLTISSLQPEDFATYYCQQYASFPYTFGGGTKVEIKRTVAAPSVFIFPPSDEQLKSGTASVVCLLNNFYPREAKVQWKVDNALQSGNSQESVTEQDSKDSTYSLSSTLTLSKADYEKHKVYACEVTHQGLSSPVTKSFNRGEC | 2.15 nM | 1900 MFI | 1490 nM | 0.15 nM | 424 RLU | 
4 | Bis-108+147-R33A.L (bispecific antibody, Fab-scFv-Fab format) heavy 1: not shown heavy 2: EVQLVQSGAEVKKPGASVKVSCKASGYTFTSYVIHWVRQAPGQGLEWMGYFNPYNDGTKYNEEFKGRVTLTSDKSTSTAYMELRSLRSDDTAVYYCARGGVRRYFDVWGQGTTVTVSSASTKGPSVFPLAPSSKSTSGGTAALGCLVKDYFPEPVTVSWNSGALTSGVHTFPAVLQSSGLYSLSSVVTVPSSSLGTQTYICNVNHKPSNTKVDKKVEPKSCGGGGSGGGGSEVQLVQSGAEVKKPGSSVKVSCKASGYTFTSYWMHWVRQAPGQCLEWMGNINPSSGATNYNEKFKSRVTLTVDKSTSTAYMELSSLRSEDTAVYYCARDRSSQYYFDYWGQGTTVTVSSGGGGSGGGGSGGGGSGGGGSDIVMTQSPDSLAVSLGERATINCKSSQSLLNSASRKNYLAWYQQKPGQPPKLLIYWASTRESGVPDRFSGSGSGTDFTLTISSLQAEDVAVYYCTQSYTLRTFGCGTKVEIKGGGGSGGGGSDKTHTCPPCPAPEAAGGPSVFLFPPKPKDTLMISRTPEVTCVVVDVSHEDPEVKFNWYVDGVEVHNAKTKPREEQYNSTYRVVSVLTVLHQDWLNGKEYKCKVSNKALPAPIEKTISKAKGQPREPQVCTLPPSREEMTKNQVSLSCAVKGFYPSDIAVEWESNGQPENNYKTTPPVLDSDGSFFLVSKLTVDKSRWQQGNVFSCSVMHEALHNHYTQKSLSLSPGK light: DIQMTQSPSSLSASVGDRVTITCRASQDIGSNLNWLQQKPGKAIKRLIYATFGLDSGVPSRFSGSRSGTDFTLTISSLQPEDFATYYCQQYASFPYTFGGGTKVEIKRTVAAPSVFIFPPSDEQLKSGTASVVCLLNNFYPREAKVQWKVDNALQSGNSQESVTEQDSKDSTYSLSSTLTLSKADYEKHKVYACEVTHQGLSSPVTKSFNRGEC | 1.87 nM | 1650 MFI | 1.51 nM | 2.48 nM | 287 RLU | 45.1%
5 | Bis-108+147-R35K.L (bispecific antibody, Fab-scFv-Fab format) heavy 1: not shown heavy 2: EVQLVQSGAEVKKPGASVKVSCKASGYTFTSYVIHWVRQAPGQGLEWMGYFNPYNDGTKYNEEFKGRVTLTSDKSTSTAYMELRSLRSDDTAVYYCARGGVRRYFDVWGQGTTVTVSSASTKGPSVFPLAPSSKSTSGGTAALGCLVKDYFPEPVTVSWNSGALTSGVHTFPAVLQSSGLYSLSSVVTVPSSSLGTQTYICNVNHKPSNTKVDKKVEPKSCGGGGSGGGGSEVQLVQSGAEVKKPGSSVKVSCKASGYTFTSYWMHWVRQAPGQCLEWMGNINPSSGATNYNEKFKSRVTLTVDKSTSTAYMELSSLRSEDTAVYYCARDRSSQYYFDYWGQGTTVTVSSGGGGSGGGGSGGGGSGGGGSDIVMTQSPDSLAVSLGERATINCKSSQSLLNSRSKKNYLAWYQQKPGQPPKLLIYWASTRESGVPDRFSGSGSGTDFTLTISSLQAEDVAVYYCTQSYTLRTFGCGTKVEIKGGGGSGGGGSDKTHTCPPCPAPEAAGGPSVFLFPPKPKDTLMISRTPEVTCVVVDVSHEDPEVKFNWYVDGVEVHNAKTKPREEQYNSTYRVVSVLTVLHQDWLNGKEYKCKVSNKALPAPIEKTISKAKGQPREPQVCTLPPSREEMTKNQVSLSCAVKGFYPSDIAVEWESNGQPENNYKTTPPVLDSDGSFFLVSKLTVDKSRWQQGNVFSCSVMHEALHNHYTQKSLSLSPGK light: DIQMTQSPSSLSASVGDRVTITCRASQDIGSNLNWLQQKPGKAIKRLIYATFGLDSGVPSRFSGSRSGTDFTLTISSLQPEDFATYYCQQYASFPYTFGGGTKVEIKRTVAAPSVFIFPPSDEQLKSGTASVVCLLNNFYPREAKVQWKVDNALQSGNSQESVTEQDSKDSTYSLSSTLTLSKADYEKHKVYACEVTHQGLSSPVTKSFNRGEC | 1.58 nM | 1740 MFI | 0.61 nM | 0.47 nM | 408 RLU | 99.9%
